Data set [1] concerns rat myocardial infarction, peri-infarct region. Put plainly: In vivo ischemia/reperfusion injury, TUNEL staining. The conditions noted are these: 1 μg intramyocardial, 30 min ischemia/24 h reperfusion. The protocol: FIG. 5B is a series of photographs and a bar graph showing TUNEL staining in control or HASF injected animals from groups described above to detect in vivo apoptosis of cardiomyocytes. Serial cyrosections of 5 μm thick were made immediately below the ligation area, 10 sections for each heart were analyzed, with N=8 rats per group. Sections were counterstained with hematoxylin. Total number of dark-brown color stained apoptotic nuclei were counted and added up blindly in 10 randomly taken fields within the peri-infarct region in each group.
Female Sprague-Dawley rats were used for all in vivo experiments. A midsternal thoracotomy was performed to expose the anterior surface of the heart after anesthesia. The proximal left […] coronary artery (LAD) was identified and a 6.0 suture (Ethicon) was placed around the artery and surrounding myocardium. […]
For TUNEL staining (DeadEnd Colometric TUNEL System, Promega) after 30 min ischemia/24 h reperfusion, serial cyrosections of 5 μm thick were made immediately below the ligation area, 10 sections for each heart were analyzed, with 8 rats in each group. […] Total number of dark-brown color stained apoptotic nuclei were counted and added up blindly in 10 randomly taken fields within the peri-infarct region in each group.

In another data set the test system is H9C2 cardiac myoblasts. Put plainly: Annexin V/PI staining of H2O2 induced apoptosis. The conditions noted are these: 10 nM, 30 min pre-incubation, 100 μM H2O2 2 h. The class given is cell-based, rat. The protocol: FIG. 2A is a bar graph showing % apoptosis. H9C2 cardiac myoblasts were pre-incubated ±10 nM of HASF recombinant protein for 30 min, and then challenged with 100 μM of H2O2 for 2 h. Apoptosis was quantified on a flow cytometer with Annexin V and Propidium Iodine (PI) staining. The sum of Annexin V positive cells+Annexin V/PI double positive cells is presented as percentage (%) of total cells. Human recombinant IGF protein was used as a positive control.
Rat cardiac myoblasts-H9C2 cells were obtained from ATCC and cultured in DMEM medium containing 10% of FBS, supplemented with 2 mM of L-glutamine, 100 U/ml of penicillin and 100 μg/ml of streptomycin (Invitrogen). Cells were seeded one day before at 1×10^5/well in 6-well plates. The following day, the cells were treated for 30 min with 10 nM of HASF the recombinant protein, the MBP or PBS were used as controls. Then the cells were challenged with 100 μM of H2O2 for 2 h. The attached and floating cells were collected. H2O2 induced apoptosis was then analyzed on a flow cytometer for Annexin V/Propidium Iodine double staining with the Vybrant Apoptosis Assay Kit #2 (Invitrogen).

The test system of a further data set is adult rat cardiomyocytes. Put plainly: Caspase-Glo 9 and 3/7 assays of H2O2 induced apoptosis. In kind it is cell-based. The conditions noted are these: 10 nM for 30 min, 100 μM H2O2, 5 h. The protocol: FIGS. 2B and 2C are bar graphs showing relative caspase activity. Adult rat cardiomyocytes were freshly isolated and treated ±10 nM of HASF for 30 min, and then challenged with 100 μM of H2O2 for various time points. H2O2 induced apoptosis in cardiomyocytes was evidenced by the dynamic increase in the activities of the initiator Caspase 9 and effector Caspase […] at 5 h, 7 h and 9 h respectively. Y axis represent the relative amount of luminescence indicating the relative amount of active Caspase activities. ** P<0.01 and *** P<0.001. Data are presented as means±standard deviation of triplicates.
FIG. 3C is a bar graph showing fold-change in caspase activity. Serum-starved adult rat cardiomyocytes were treated with 3 μM PKC inhibitors or vehicle DMSO for 30 minutes, then 100 nM HASF recombinant protein was added for 30 minutes followed by treatment with 200 μM H2O2 for 3 hours. Apoptosis was determined by detection of Caspase-9 activity using a homogeneous luminescent assay. All samples were measured in triplicates. *P<0.05 vs. non-HASF treated cells.
FIG. 4C is a bar graph showing relative caspase activity in adult cardiomyocytes. Apoptosis as determined by detection of Caspase-9 activity on adult rat cardiomyocytes pre-treated with 178 μM PKC translocation inhibitor peptide for 10 minutes and then with 100 nM of HASF for 30 minutes. Thereafter, cells were challenged with 200 μM H2O2 for 3 hours. All samples were measured in triplicates. *P <0.05 vs. non-HASF treated cells and the experiment was repeated multiple times.
Adult rat ventricular cardiomyocytes were isolated from 6 weeks old female Sprague-Dawley rat (Harlan World Headquarters, Indianapolis, Ill., USA) hearts by enzymatic digestion and were seeded in (6-well) plates or Delta T culture dishes (Bioptechs, Inc., Pa.) pre-coated with 1 μg/cm2 of laminin (Sigma) at 5×10^4/well and cultured overnight in serum-free M199 medium (Sigma), supplemented with 2 mM of L-carnitine, 5 mM of creatine, 5 mM of taurine, 0.2% of albumin, 100 U/ml of penicillin and 100 μg/ml of streptomycin. […]

B1: HASF: Hypoxia regulated Akt MSC Factor, secreted protein encoded by C3orf58; recombinant human protein without N-signal sequence, SEQ ID NO:1 or 2 (protein, UniProt Q8NDZ4 36-430, looked up)
Divergent protein kinase …: LASWQRNELTDRRFLQLNKCPACFGTSWCRRFLNGQVVFEAWGRLRLLDFLNVKNVYFAQYGEPREGGRRRVVLKRLGSQRELAQLDQSICKRATGRPRCDLLQAMPRTEFARLNGDVRLLTPEAVEGWSDLVHCPSQRLLDRLVRRYAETKDSGSFLLRNLKDSERMQLLLTLAFNPEPLVLQSFPSDEGWPFAKYLGACGRMVAVNYVGEELWSYFNAPWEKRVDLAWQLMEIAEQLTNNDFEFALYLLDVSFDNFAVGPRDGKVIIVDAENVLVADKRLIRQNKPENWDVWYESKFDDCDKEACLSFSKEILCARATVDHNYYAVCQNLLSRHATWRGTSGGLLHDPPSEIAKDGRLEALLDECANPKKRYGRFQAAKELREYLAQLSNNVR
modifications: 6xHis tag
As to B1, the “reduction of the number of TUNEL positive nuclei” value in data set [1] is approximately 69%. In addition, in the data set with H9C2 cardiac myoblasts, the “decrease of H2O2 induced apoptosis (Annexin V/PI staining)” value was approximately 50%. In the data set on adult rat cardiomyocytes, the “reduction of Caspase 3/7” value is recorded as approximately 45% and the “reduction of Caspase 9” value was approximately 38%.
